T1: Flag-tagged HPS4 wild-type (human, UniProt Q9NQG7 1-708)
T1 sequence: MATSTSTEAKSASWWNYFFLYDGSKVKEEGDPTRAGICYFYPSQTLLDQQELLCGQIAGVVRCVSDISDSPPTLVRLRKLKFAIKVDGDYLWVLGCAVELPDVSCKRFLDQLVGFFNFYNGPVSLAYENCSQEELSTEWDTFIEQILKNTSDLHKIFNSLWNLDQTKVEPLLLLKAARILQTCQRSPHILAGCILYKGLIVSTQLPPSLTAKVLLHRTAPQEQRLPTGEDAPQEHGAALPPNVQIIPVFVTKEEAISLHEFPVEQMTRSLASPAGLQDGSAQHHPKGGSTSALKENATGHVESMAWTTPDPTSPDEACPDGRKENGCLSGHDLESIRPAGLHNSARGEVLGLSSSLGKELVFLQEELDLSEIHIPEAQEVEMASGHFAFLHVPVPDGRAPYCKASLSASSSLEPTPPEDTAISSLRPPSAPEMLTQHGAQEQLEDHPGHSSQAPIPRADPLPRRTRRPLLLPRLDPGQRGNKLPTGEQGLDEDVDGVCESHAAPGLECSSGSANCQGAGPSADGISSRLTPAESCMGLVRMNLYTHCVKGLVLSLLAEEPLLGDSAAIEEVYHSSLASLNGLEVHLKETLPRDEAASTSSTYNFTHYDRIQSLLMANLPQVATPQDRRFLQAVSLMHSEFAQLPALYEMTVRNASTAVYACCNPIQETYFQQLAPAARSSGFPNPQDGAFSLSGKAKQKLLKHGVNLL

T2: GST-tagged human HPS4 (residues 1-708) (human, UniProt Q9NQG7 1-708)
T2 sequence: T1 sequence

B1: GST-tagged human HPS4 Δ289-518 (natural protein)
chain: MATSTSTEAKSASWWNYFFLYDGSKVKEEGDPTRAGICYFYPSQTLLDQQELLCGQIAGVVRCVSDISDSPPTLVRLRKLKFAIKVDGDYLWVLGCAVELPDVSCKRFLDQLVGFFNFYNGPVSLAYENCSQEELSTEWDTFIEQILKNTSDLHKIFNSLWNLDQTKVEPLLLLKAARILQTCQRSPHILAGCILYKGLIVSTQLPPSLTAKVLLHRTAPQEQRLPTGEDAPQEHGAALPPNVQIIPVFVTKEEAISLHEFPVEQMTRSLASPAGLQDGSAQHHPKGGGPSADGISSRLTPAESCMGLVRMNLYTHCVKGLVLSLLAEEPLLGDSAAIEEVYHSSLASLNGLEVHLKETLPRDEAASTSSTYNFTHYDRIQSLLMANLPQVATPQDRRFLQAVSLMHSEFAQLPALYEMTVRNASTAVYACCNPIQETYFQQLAPAARSSGFPNPQDGAFSLSGKAKQKLLKHGVNLL
B2: His-tagged mouse Rab9A Q66L (residues 2-199) (natural protein)
chain: AGKSSLFKIILLGDGGVGKSSLMNRYVTNKFDSQLFHTIGVEFLNKDLEVDGHFVTMQIWDTAGLERFRSLRTPFYRGSDCCLLTFSVDDSQSFQNLSNWKKEFIYYADVKEPESFPFVILGNKTDIKERQVSTEEAQAWCKDNGDYPYFETSAKDSTNVAAAFEEAVRRILATEDRSEHLIQTDTVNLHRKPKPNSS
B3: HPS1 (untagged human HPS1, residues 1-700) (natural protein)
chain: MKCVLVATEGAEVLFYWTDQEFEESLRLKFGQSENEEEELPALEDQLSTLLAPVIISSMTMLEKLSDTYTCFSTENGNFLYVLHLFGECLFIAINGDHTESEGDLRRKLYVLKYLFEVHFGLVTVDGHLIRKELRPPDLAQRVQLWEHFQSLLWTYSRLREQEQCFAVEALERLIHPQLCELCIEALERHVIQAVNTSPERGGEEALHAFLLVHSKLLAFYSSHSASSLRPADLLALILLVQDLYPSESTAEDDIQPSPRRARSSQNIPVQQAWSPHSTGPTGGSSAETETDSFSLPEEYFTPAPSPGDQSSGSTIWLEGGTPPMDALQIAEDTLQTLVPHCPVPSGPRRIFLDANVKESYCPLVPHTMYCLPLWQGINLVLLTRSPSAPLALVLSQLMDGFSMLEKKLKEGPEPGASLRSQPLVGDLRQRMDKFVKNRGAQEIQSTWLEFKAKAFSKSEPGSSWELLQACGKLKRQLCAIYRLNFLTTAPSRGGPHLPQHLQDQVQRLMREKLTDWKDFLLVKSRRNITMVSYLEDFPGLVHFIYVDRTTGQMVAPSLNCSQKTSSELGKGPLAAFVKTKVWSLIQLARRYLQKGYTTLLFQEGDFYCSYFLWFENDMGYKLQMIEVPVLSDDSVPIGMLGGDYYRKLLRYYSKNRPTEAVRCYELLALHLSVIPTDLLVQQAGQLARRLWEASRIPLL

Experiments:
[1] = target: B3; test: cryo-EM structure
[2] = target: T1, Flag-tagged HPS4 wild-type; test: pull-down
[3] = target: B1; test: SEC
[4] = target: T2, GST-tagged human HPS4 (residues 1-708); test: SEC

## B1
[1]
  binding result: binds

## B2
[2]
  binding result: binds

## B3
[3]
  stoichiometry N: 1
[4]
  binding result: binds
